# Data as given in the RNAGym collection of RNA variant scans (doi:10.7554/elife.80360).
# B1: HDV Ribozyme (parent)
# chain: GGCCGGCAUGGUCCCAGCCUCCUCGCUGGCGCCGGCUGGGCAACAUUCCGAGGGGACCGUCCCCUCGGUAAUGGCGAAUGGGACCCA
# Variants of: B1
# Assay: self-cleavage, relative activity (ratio to wild type); higher = more cleavage; co-transcriptional
row,Variant,self-cleavage
1,GGCCGGCAUGGUCCCAGCCUCCUCGCUGGCGCCGGCUGGGCAACAUUCCGAGGGGACCGUCCCCUCGGGAAUGGCGAAUGGGAGCCA [U69G C84G],0.639
2,GGCCGGCAUGGUCCCAGCCUCCUCGCUGGCGCCGGCUGGGCAACAUUCCGAGGGGACCGUCCCCUCGGUUGUGGCGAAUGGGACCCA [A70U A71G],1.09
3,GGCCGGCAUGGUCCCAGCCUCCUCGCUGGCGCCGGCUGGGCAACAUUCCGAGGGGACCGUCCCCUCGGUUUUGGCGAAUGGGACCCA [A70U A71U],0.98
4,GGCCGGCAUGGUCCCAGCCUCCUCGCUGGCGCCGGCUGGGCAACAUUCCGAGGGGACCGUCCCCUCGGUCAUGGCGAACGGGACCCA [A70C U79C],0.18
5,GGCCGGCAUGGUCCCAGCCUCCUCGCUGGCGCCGGCUGGGCAACAUUCCGAGGGGACCGUCCCCUCGGUGAUGGCGAAUGGGACUCA [A70G C85U],1.01
6,GGCCGGCAUGGUCCCAGCCUCCUCGCUGGCGCCGGCUGGGCAACAUUCCGAGGGGACCGUCCCCUCGGUUAUCGCGAAUGGGACCCA [A70U G73C],0.332
7,GGCCGGCAUGGUCCCAGCCUCCUCGCUGGCGCCGGCUGGGCAACAUUCCGAGGGGACCGUCCCCUCGGUCAUGUCGAAUGGGACCCA [A70C G74U],0.504
8,GGCCGGCAUGGUCCCAGCCUCCUCGCUGGCGCCGGCUGGGCAACAUUCCGAGGGGACCGUCCCCUCGGUACAGGCGAAUGGGACCCA [A71C U72A],0.332
9,GGCCGGCAUGGUCCCAGCCUCCUCGCUGGCGCCGGCUGGGCAACAUUCCGAGGGGACCGUCCCCUCGGUACCGGCGAAUGGGACCCA [A71C U72C],0.185
10,GGCCGGCAUGGUCCCAGCCUCCUCGCUGGCGCCGGCUGGGCAACAUUCCGAGGGGACCGUCCCCUCGGUACGGGCGAAUGGGACCCA [A71C U72G],0.465
11,GGCCGGCAUGGUCCCAGCCUCCUCGCUGGCGCCGGCUGGGCAACAUUCCGAGGGGACCGUCCCCUCGGUCACGGCGAAUGGGACCCA [A70C U72C],0.369
12,GGCCGGCAUGGUCCCAGCCUCCUCGCUGGCGCCGGCUGGGCAACAUUCCGAGGGGACCGUCCCCUCGGUUAUGGCGAAUGGGACCCC [A70U A87C],0.98
13,GGCCGGCAUGGUCCCAGCCUCCUCGCUGGCGCCGGCUGGGCAACAUUCCGAGGGGACCGUCCCCUCGGUCAUGGCUAAUGGGACCCA [A70C G76U],1.05
14,GGCCGGCAUGGUCCCAGCCUCCUCGCUGGCGCCGGCUGGGCAACAUUCCGAGGGGACCGUCCCCUCGGGAAAGGCGAAUGGGACCCA [U69G U72A],0.369
15,GGCCGGCAUGGUCCCAGCCUCCUCGCUGGCGCCGGCUGGGCAACAUUCCGAGGGGACCGUCCCCUCGGUUAAGGCGAAUGGGACCCA [A70U U72A],0.415
16,GGCCGGCAUGGUCCCAGCCUCCUCGCUGGCGCCGGCUGGGCAACAUUCCGAGGGGACCGUCCCCUCGGUUAGGGCGAAUGGGACCCA [A70U U72G],0.554

row,Variant,self-cleavage
1,GGCCGGCAUGGUCCCAGCCUCCUCGCUGGCGCCGGCUGGGCAACAUUCCGAGGGGACCGUCCCCUCGGUAGUGGCGAGUGGGACCCA [A71G A78G],0.772
2,GGCCGGCAUGGUCCCAGCCUCCUCGCUGGCGCCGGCUGGGCAACAUUCCGAGGGGACCGUCCCCUCGGGAAUGGCGAAUGGGACCCG [U69G A87G],0.876
3,GGCCGGCAUGGUCCCAGCCUCCUCGCUGGCGCCGGCUGGGCAACAUUCCGAGGGGACCGUCCCCUCGGUUAUGGCGAAUUGGACCCA [A70U G80U],0.222
4,GGCCGGCAUGGUCCCAGCCUCCUCGCUGGCGCCGGCUGGGCAACAUUCCGAGGGGACCGUCCCCUCGGGAAUUGCGAAUGGGACCCA [U69G G73U],0.314
5,GGCCGGCAUGGUCCCAGCCUCCUCGCUGGCGCCGGCUGGGCAACAUUCCGAGGGGACCGUCCCCUCGGUUAUGGCGAAGGGGACCCA [A70U U79G],0.617
6,GGCCGGCAUGGUCCCAGCCUCCUCGCUGGCGCCGGCUGGGCAACAUUCCGAGGGGACCGUCCCCUCGGUGGUGGCGAAUGGGACCCA [A70G A71G],0.918
7,GGCCGGCAUGGUCCCAGCCUCCUCGCUGGCGCCGGCUGGGCAACAUUCCGAGGGGACCGUCCCCUCGGUGCUGGCGAAUGGGACCCA [A70G A71C],0.712
8,GGCCGGCAUGGUCCCAGCCUCCUCGCUGGCGCCGGCUGGGCAACAUUCCGAGGGGACCGUCCCCUCGGGAAUGGCCAAUGGGACCCA [U69G G76C],0.77
9,GGCCGGCAUGGUCCCAGCCUCCUCGCUGGCGCCGGCUGGGCAACAUUCCGAGGGGACCGUCCCCUCGGGAAUGGGGAAUGGGACCCA [U69G C75G],0.199
10,GGCCGGCAUGGUCCCAGCCUCCUCGCUGGCGCCGGCUGGGCAACAUUCCGAGGGGACCGUCCCCUCGGUACUGGCUAAUGGGACCCA [A71C G76U],0.91
11,GGCCGGCAUGGUCCCAGCCUCCUCGCUGGCGCCGGCUGGGCAACAUUCCGAGGGGACCGUCCCCUCGGUACUGGCGAAUGGGACACA [A71C C85A],0.578
12,GGCCGGCAUGGUCCCAGCCUCCUCGCUGGCGCCGGCUGGGCAACAUUCCGAGGGGACCGUCCCCUCGGGAAUGACGAAUGGGACCCA [U69G G74A],0.614
13,GGCCGGCAUGGUCCCAGCCUCCUCGCUGGCGCCGGCUGGGCAACAUUCCGAGGGGACCGUCCCCUCGGGAAUGUCGAAUGGGACCCA [U69G G74U],0.607
14,GGCCGGCAUGGUCCCAGCCUCCUCGCUGGCGCCGGCUGGGCAACAUUCCGAGGGGACCGUCCCCUCGGUGAUGGCGAAUGGGACCGA [A70G C86G],1.03
15,GGCCGGCAUGGUCCCAGCCUCCUCGCUGGCGCCGGCUGGGCAACAUUCCGAGGGGACCGUCCCCUCGGGAAUGGCGACUGGGACCCA [U69G A78C],0.332
16,GGCCGGCAUGGUCCCAGCCUCCUCGCUGGCGCCGGCUGGGCAACAUUCCGAGGGGACCGUCCCCUCGGGAAUGGCGAAUGGGGCCCA [U69G A83G],0.739
